Reference: the supplement of paper PMC9170038

System: MS2 coat protein
Experiment: apparent KD of MS2 coat protein; designed switch direction (-1 OFF switch, 1 ON switch): -1; higher = weaker reporter binding
In short: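 Three titration conditions were used: no input, 200 uM small-molecule ligand, and an oligonucleotide input. In each, SNAP-549-labelled MS2 coat protein was raised from 0.7 or 1.5 nM, doubling, to 3 µM over designed RNA switches transcribed on Illumina chips by stalled E. coli RNA polymerase. Curve fits of normalised cluster fluorescence gave values whose per-design median over clusters is the apparent KD.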

[1] = Eterna round: R95, input ligand: microRNA oligo, concentration not stated
[2] = input ligand: microRNA oligo, concentration not stated
[3] = Eterna round: R95, input ligand: FMN 200 uM
[4] = Eterna round: R95, input ligand: none

Sequence | apparent KD of MS2 coat protein [1] | apparent KD of MS2 coat protein (input ligand: FMN 200 uM) | apparent KD of MS2 coat protein [2] | apparent KD of MS2 coat protein (input ligand: none) | apparent KD of MS2 coat protein [3] | apparent KD of MS2 coat protein [4]
UUUUUGUCAGGAUAUGCGUAGUAGAACAAUAGUACUACUACGUAGAAGGGACAUGAGGAUCACCCAUGUUCCUC [Fiskers Ex 4 Super stable 44 mod 17] (puzzle: Exclusion 4) | 13.9 nM | – | – | – | – | –
AGAUUGCGGCAAGGAUAUCUUUGUCAACUUAAAACAUGAGGAUCACCCAUGUGCAUCUUCGUGUGAGAGAAGGUGCGGCGAUCC [Raesredi] (Eterna round: R96, puzzle: Exclusion NG 2) | – | 1430 nM | 368 nM | 687 nM | – | –
AUAACAUGCUGGUGAUCAUACAUGAGGAUCACCCAUGUAACAAGCUUUUUGUUCGUCUUAUAAUUUAAGAUCACCAG [Stov1/7-B2] (Eterna round: R97, puzzle: Sensor, turn-off variant 1) | – | 21.7 nM | – | 19.2 nM | – | –
GUUUAGUGAGGAUAUGUGGCUUCGAUCGUGCGAGGGAGGCUACAGAAGGCACAUGAGGAUCACCCAUGUUCCUC [salish99_ex4_r4_303] (Eterna round: R97, puzzle: Exclusion 4) | – | 655 nM | – | 42.5 nM | – | –
CCCGCAGGUUUUUUGCUCGACAUGAGGAUCACCCAUGUUGUAUGGGUUGUGUGUGUGUGGUGCAUAUAUAUGGUCCU [-25.6, -47.7 kcal, A 16%] (Eterna round: R97, puzzle: Sensor, turn-off variant 1) | – | 427 nM | – | 655 nM | – | –
GGGAUGUCAGGAUAUCCGAAUAAUAACAACAAUAACAGAAAGGAGAAGGGACAUGAGGAUCACCCAUGUAAAAG [Bemadiin] (puzzle: Exclusion 4) | 37.5 nM | – | – | – | 39.9 nM | 40 nM
GAGUUAACGUGAGGAAUAUACAUGAGGAUCACCCAUGUUAACAAAUAUAUUGCUCGUCUUAUAACAACAAUUAACUC [Alarm 7 - Jieux - Sensor, turn-off variant 1] (Eterna round: R97, puzzle: Sensor, turn-off variant 1) | – | 22.9 nM | – | 22.8 nM | – | –
AGGUGUAGAGGAUAUCGAGUUCUUUACAUGAGGAUCACCCAUGUCCUGGGCACCCAGGACCGAGAAGGCUACACCA [Omei Ex5 D29] (Eterna round: R97, puzzle: Exclusion 5) | – | 50.3 nM | – | 32.8 nM | – | –
CGCAAACAUGAGGAUCACCCAUGUGAGGAUAUCAUGCUUCGUAGUAAACUACGAAGUGUGAGAAGGCACGUGCG [Omei Ex1 D4] (Eterna round: R97, puzzle: Exclusion 1) | – | 42.9 nM | – | 29.9 nM | – | –
CGUAGUCUUCGGACUACGAACAUGAGGAUCACCCAUGUAAUGAGCAGAUCUUCAUGCAAGCUUUUUGCUCGUCUUAU [Sensor v3 - turn-off variant 1 - 43] (puzzle: Sensor v3, turn-off variant 1) | 14.7 nM | – | – | – | 148 nM | 227 nM
CAUUACUACAAGCUAUGGGACAUGAGGAUCACCCAUGUUCGUCUUAUUGAUCUAGGUACGCUGACGUACCUAGAUCU [JL-sv1-2.22 Brourd mod] (puzzle: Sensor v3, turn-off variant 1) | 21.6 nM | – | – | – | 16.6 nM | 15.7 nM
GGUUGGCGAGGAUAUACAUGAGGAUCACCCAUGUGAGACAAAAAAGUGAGGAAGAAAAGUAGAAGGCGCUGACG [salish99_ex3_r3_021] (puzzle: Exclusion 3) | 54.1 nM | – | – | – | 362 nM | 64.1 nM
CAGUACUGAGGAUAUACAUGAGGAUCACCCAUGUGUGUGAAAUUUAUGUGGUUGUUUUGUAGAAGGCAGUACUG [JR_Ex3_Sub029] (Eterna round: R97, puzzle: Exclusion 3) | – | 92.1 nM | – | 855 nM | – | –
CUGAGCAGACGGAGAUCCAACAUGAGGAUCACCCAUGUCUCAAAAGCUUUUUGCUUAAACGUCUUAUCUCUGUUCAC [Esquitian 5] (Eterna round: R97, puzzle: Sensor, turn-off variant 1) | – | 35.7 nM | – | 33.8 nM | – | –
UCUGGUCGAGGAUAUACAUUCGUGCUUCGGCACGUAAGGUCACAUGAGGAUCACCCAUGUAGAAGGCGACCAGA [E2/7-A3] (Eterna round: R97, puzzle: Exclusion 2) | – | 181 nM | – | 38.4 nM | – | –
CGUAGCAAAGUGAGGAUAUCUAGAGCUUCGGCUCUAGAGAAGGCACAUGAGGAUCACCCAUGUGAUUAGCUACG [BmEx4/9-A1] (Eterna round: R97, puzzle: Brourd's mod of Exclusion 4) | – | 152 nM | – | 29.8 nM | – | –
ACAGGCUUUUUGCUCGUCUACAUGAGGAUCACCCAUGUGGGAUUGUUGGUUGUGUUGCUUGUUUGUGCUCGUCUUGU [Low Nucleotide] (Eterna round: R97, puzzle: Sensor, turn-off variant 1) | – | 16.1 nM | – | 17.6 nM | – | –
UACCUGAGGCUUUGCUUUAGGUUUACAUGAGGAUCACCCAUGUAGGAUAUGGUAGGCUUUGCUUACCAGAAGGACAUGUUAAUU [JL ENG3 1.08] (Eterna round: R96, puzzle: Exclusion NG 3) | – | 190 nM | 64.9 nM | 59.9 nM | – | –
UAAAUGUGAGGAUAUCAGGUGUGCUAGCGAACUGGUACAUCUGAGAAGGCACAUGAGGAUCACCCAUGUUCCUU [Mat - Exclusion 4 - Mod of JL - D50] (puzzle: Exclusion 4) | 16.2 nM | – | – | – | – | –
CUGAGCAGACGGAGAUCCAACAUGAGGAUCACCCAUGUCUCAAAAGCUUUUUGCUUGUCUUAUCCUCCUCUGUUCUC [Xegean] (puzzle: Sensor v3, turn-off variant 1) | 248 nM | – | – | – | 14.6 nM | 12.7 nM
GUCGUGCGGCUUUGCUGUACGAGUACAUGAGGAUCACCCAUGUAGGAUAUGGCUCGCUUUGCGUGCCAGAAGGGCGUGCGUUGG [Excl-NG3-LRO11] (Eterna round: R96, puzzle: Exclusion NG 3) | – | 43.2 nM | 25.6 nM | 33.6 nM | – | –
GAGUAGGGAGGAUAUGCAGAAUGACUCGUAAGUAAGAUAGGACAUGAGGAUCACCCAUGUAGAAGGCUCUGAUG [jun14#1] (Eterna round: R97, puzzle: Exclusion 2) | – | 46.3 nM | – | 42 nM | – | –
GAUGGACAUGAGGAUCACCCAUGUAAGGAUAUACGGUUGGUAGAGAGAGAGAGAAAUGGUAGAAGGUACGGAAA [JR_Exclu1_Sub051] (puzzle: Exclusion 1) | 46.6 nM | – | – | – | 36.5 nM | 50.3 nM
GUAGAGUAAGGAUAUGAUGAAUAGGAUAGAAUGGUUAGAAAUCAGAAGGUACAUGAGGAUCACCCAUGUAAUGU [Excluse me!!!! 13 - Jieux - Exclusion 4] (puzzle: Exclusion 4) | 21.4 nM | – | – | – | – | –
UUUUUACAUGAGGAUCACCCAUGUCAGGAUAUGGUUAUAUUUUAUUAUUUUAUUUUUUCCAGAAGGGACUAUUA [My solution] (puzzle: Exclusion 1) | 273 nM | – | – | – | – | –
